Measured values reported in patent US12365732 (23ANDME, dated 2025).

T1: hu-CD96 isoform 2 on CHO cells (human, UniProt P40200 22-585)
T1 construct: also called CHO-CD96 (isoform 2); CD96-CHOs
T1 sequence: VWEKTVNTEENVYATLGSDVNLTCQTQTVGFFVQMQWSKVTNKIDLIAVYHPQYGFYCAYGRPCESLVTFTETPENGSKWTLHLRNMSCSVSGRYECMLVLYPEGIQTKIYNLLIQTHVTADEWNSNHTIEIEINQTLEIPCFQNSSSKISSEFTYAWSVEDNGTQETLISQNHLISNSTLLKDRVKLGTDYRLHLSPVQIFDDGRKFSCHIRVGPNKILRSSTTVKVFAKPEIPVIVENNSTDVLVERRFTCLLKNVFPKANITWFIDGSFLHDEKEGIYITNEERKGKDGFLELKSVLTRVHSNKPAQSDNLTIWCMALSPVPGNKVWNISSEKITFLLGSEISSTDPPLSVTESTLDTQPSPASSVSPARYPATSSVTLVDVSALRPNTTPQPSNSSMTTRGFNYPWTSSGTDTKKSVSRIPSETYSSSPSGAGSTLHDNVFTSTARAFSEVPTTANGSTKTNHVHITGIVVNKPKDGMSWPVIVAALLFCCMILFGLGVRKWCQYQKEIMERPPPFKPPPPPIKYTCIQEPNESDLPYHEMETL

T2: hu-CD96 isoform 1 on HEK293T cells (human, UniProt P40200 22-585)
T2 construct: Origene RC213845, transient expression; also called HEK293T-CD96 (iso1)
T2 sequence: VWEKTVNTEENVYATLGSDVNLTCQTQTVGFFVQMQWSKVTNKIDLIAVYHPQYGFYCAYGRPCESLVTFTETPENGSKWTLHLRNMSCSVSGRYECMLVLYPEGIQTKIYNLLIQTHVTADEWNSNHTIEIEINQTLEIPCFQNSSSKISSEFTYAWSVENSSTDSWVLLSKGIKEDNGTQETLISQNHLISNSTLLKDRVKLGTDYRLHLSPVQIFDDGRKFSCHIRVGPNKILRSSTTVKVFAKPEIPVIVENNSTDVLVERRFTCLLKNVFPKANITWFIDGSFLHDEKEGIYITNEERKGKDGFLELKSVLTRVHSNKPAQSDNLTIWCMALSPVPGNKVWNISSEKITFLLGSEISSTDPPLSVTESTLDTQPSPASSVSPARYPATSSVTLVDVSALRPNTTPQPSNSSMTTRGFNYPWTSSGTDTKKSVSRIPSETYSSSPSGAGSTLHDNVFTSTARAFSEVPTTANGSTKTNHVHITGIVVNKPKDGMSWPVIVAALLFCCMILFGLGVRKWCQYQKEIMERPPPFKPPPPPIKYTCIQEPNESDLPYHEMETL


Legend:
[1] = molecular target: T1, hu-CD96 isoform 2 on CHO cells; assay: FACS, Ab 50 nM
Experimental: (§1) Isoform 1 of hu-CD96 (Origene, catalog #RC213845) was transiently expressed in HEK293T cells following standard lipofectamine or Fugene transfection protocol. […] Cells were washed, and binding was detected by incubation with anti-mouse IgG-FITC (Biolegend, catalog #406001) for 20 minutes at 4° C. Cell binding was analyzed by flow cytometry with a CytoFLEX (Beckman Coulter). Binding curves were calculated as a percentage of cells positive for bound antibody.
(§2) Isoform 2 of hu-CD96 (DNA construct: Origene, catalog #RC221005) was expressed on a single-cell-clone-derived CHO stable cell line. Binding of the anti-CD96 antibodies to the CHO cells were determined as described above with isoform 1 of hu-CD96.

[2] = molecular target: T2, hu-CD96 isoform 1 on HEK293T cells; assay: FACS, Ab 0.08 nM
Experimental: as §1

[3] = molecular target: T1, hu-CD96 isoform 2 on CHO cells; assay: FACS, Ab 0.08 nM
Experimental: as §1, §2

hu-CD96D1 D3-hFc = hu-CD96D1 D3-hFc (human); assay: ELISA, coated CD96D1D3-hFc
Experimental: (§3) CD96 binding of purified hybridoma antibodies: The hu-CD96 and cy-CD96 antigen binding ELISA was performed on the purified hybridoma antibodies. Briefly, 96-well MAXISORP® flat bottom plates (Thermo Fisher Scientific, Waltham, MA; Cat #439454) were coated overnight at 4° C. with 0.5 µg/mL of hu-CD96D1 D3-hFc and cynomolgus monkey CD96D1 D3-hFc in PBS. After removing the coating solution, unspecific binding was blocked by PBS containing 1% bovine serum albumin (blocking buffer) and incubation at room temperature for one hour. Plates were then washed three times with PBS and 0.05% TWEEN®-20 (wash buffer). Serial dilution of purified antibodies in PBS containing 0.5% BSA and 0.05% Tween 20 (ELISA buffer) was added to individual wells followed by incubation at room temperature for one hour with agitation. Plates were washed three times with wash buffer, then 100 µL/well of anti-mouse IgG-HRP (Thermo Fisher Scientific, Waltham, MA; Cat #626520) in ELISA buffer was added. […] Enzymatic color development was stopped with 50 µL/well of TMB stop solution (VWR/Avantor, Radnor, PA, USA; Cat #95059-200). Plates were analyzed with a SpectraMax i3X plate reader (Molecular Devices LLC, San Jose, CA, USA) at 450 nm.

[4] = molecular target: T3, cynomolgus monkey CD96D1 D3-hFc (cynomolgus monkey); assay: ELISA, coated CD96D1D3-hFc
T3 construct: also called cy-CD96D1 D3
Experimental: as §3

[5] = molecular target: T1, hu-CD96 isoform 2 on CHO cells; assay: FACS, CD155-Fc-FLAG 10 nM, Ab 0.032 nM
Experimental: CHO cells stably expressing isoform 2 of hu-CD96 (Origene, catalog #RC221005) were incubated with anti-CD96 antibodies for 20 minutes at 4° C. The cells were washed, and then incubated with 10 nM human CD155-Fc-FLAG for 30 minutes at 4° C. Cells were washed, and then human CD155-Fc-FLAG binding was detected by incubation with anti-FLAG-APC (Columbia Biosciences, catalog #D3-1718-1MG) for 20 minutes at 4° C. Cell binding was analyzed by flow cytometry with a CytoFLEX (Beckman Coulter). CD155 binding is represented as median fluorescence intensity (MedFI).
As shown in Table 20 (below), the anti-CD96 antibodies, mAb1.v7.NGS8, mAb1.v7.NGS9, mAb1.v7.NGS10, mAb1.v7.NGS11, and h10G1 inhibited soluble hu-CD155 binding to CD96-expressing CHO cells dose-dependently and potently. The antibody NK92.39 (Fuchs et al., 2004; Biolegend catalog #338405) inhibited receptor binding similarly.

Row | Binder | % positive [1] [%] | % positive [2] [%] | % positive [3] [%] | EC50 (hu-CD96D1 D3-hFc) [nM] | EC50 [4] [nM] | CD155-Fc binding (MedFI) [5] [MedFI] | binding result [4]
1 | 10G1 (clone 10G1.3G8), purified hybridoma antibody (antibody, V domains shown, murine hybridoma IgG) VH: QIQLVQSGPELKKPGETVKISCKASGYPFTTYGMSWVKQAPGKGLKWMGWINTDSGVPTYADDFKGRFAFSLETSANTAYLQINSLKNEDAATYFCARNIYYGWGNFDYWGQGTILTVSS VL: DILMTQSPTTLSVTPGETVSLSCRASQDIYRNLHWYQQKSQGTPRLLIKHASDSISGIPSRFTGSGSGTDFTLSINSVKPEDEGIYYCLQGYSMPYTFGGGTKLEIK | 39.8 | 16.5 | 9.4 | 0.03 | 0.2 |  | 
2 | 7E5, purified hybridoma antibody (antibody, V domains shown, murine hybridoma IgG) VH: QVQLKESGPGLVAPSQSLSIICTVSGFSLTNYGIHWIRQPPGKGLEWLGIIWAGGSTNYNSALMSRLTISKDNSKSQVFLKMNSLQTNDTAIYYCARVSMMGFAYWGQGTLVTVSA VL: QAVVTQESALTTSPGETVTLTCRSSTGAVTTSNYANWVQEKPDHLFTGLIGGTNNRAPGVPARFSGSLIGDKAALTITGAQTEDEAIYFCSLWYGSHWVFGGGTKLTVL | 58.9 | 8.5 | 24.6 | 0.06 | 0.53 |  | 
3 | mAb1.v7 IgG (humanized 12F8) (antibody, V domains shown, human IgG1 N297G) VH: EVQLVQSGAEVKKPGASVKVSCKASGFTFTNNWMHWVRQAPGQGLEWIGMIHPNSGITNINEKFKNRVTMTTDTSTSTAYMELRSLRSEDTAVYYCRSDGTYEGYFDYWGQGTLVTVSS VL: DIQLTQSPSSLSASVGDRVTITCKASQNVGTAIVWYQQKPGKAPKVLIYSASTRYTGVPSRFSGSGSGTDFTLTISSLQPEDFATYYCQQYSSSPLTFGQGTKVEIKG | 44.1 | 0.8 | 1.4 |  |  |  | 
4 | mAb1.v7.NGS11 IgG (antibody, V domains shown, human IgG1 N297G) VH: EVQLVQSGAEVKKPGASVKVSCKASGFTFTNNFMHWVRQAPGQGLEWIGFIHANSGITNINEKFKNRVTMTTDTSTSTAYMELRSLRSEDTAVYYCRSDGVYEGYFDYWGQGTLVTVSS VL: DIQLTQSPSSLSASVGDRVTITCKASQNVGTAIVWYQQKPGKAPKVLIYSASTRYTGVPSRFSGSGSGTDFTLTISSLQPEDFATYYCQQYSSSPLTFGQGTKVEIKG |  |  |  |  |  | 57700 | 
5 | mAb1.v7.NGS10 IgG (antibody, V domains shown, human IgG1 N297G) VH: EVQLVQSGAEVKKPGASVKVSCKASGFTFTNNFMHWVRQAPGQGLEWIGFIHANSGITNINEKFKNRVTMTTDTSTSTAYMELRSLRSEDTAVYYCRSDGIYEGYFDYWGQGTLVTVSS VL: DIQLTQSPSSLSASVGDRVTITCKASQNVGTAIVWYQQKPGKAPKVLIYSASTRYTGVPSRFSGSGSGTDFTLTISSLQPEDFATYYCQQYSSSPLTFGQGTKVEIKG |  |  |  |  |  | 57700 | 
6 | mAb1.v7.NGS9 IgG (antibody, V domains shown, human IgG1 N297G) VH: EVQLVQSGAEVKKPGASVKVSCKASGFTFTNNFMHWVRQAPGQGLEWIGMIHANSGITNINEKFKNRVTMTTDTSTSTAYMELRSLRSEDTAVYYCRSDGVYEGYFDYWGQGTLVTVSS VL: DIQLTQSPSSLSASVGDRVTITCKASQNVGTAIVWYQQKPGKAPKVLIYSASTRYTGVPSRFSGSGSGTDFTLTISSLQPEDFATYYCQQYSSSPLTFGQGTKVEIKG |  |  |  |  |  | 53000 | 
7 | 9H4, purified hybridoma antibody (antibody, V domains shown, murine hybridoma IgG) VH: EVQLLETGGGLVKSGGSLKLSCAASGFTFSDYYMYWVRQTPEKRLEWVAAISDDGTYTYYPDSVKGRFTISRDNANNYLYLQMSSLKSEDTAIYYCAKAGSYDYFDVWGAGTTVTVSS VL: DIVLTQSPASLAVSLGQRAIISCKASQSVTFADTGLMHWYQQKPGQQPKLLIYRASNLEVGVPTRFSGSGSGTDFTLNIHPVEEEDVATYYCQQSREYPWTFGGGTKLEIK | 46.2 | 1.5 | 3.1 | 0.24 |  |  | no binding
8 | h10G1 IgG (humanized 10G1) (antibody, V domains shown, human IgG1 N297G) VH: EIQLVQSGSELKKPGASVKVSCKASGYPFTTYGMSWVRQAPGQGLEWMGWINTDSGVPTYADDFKGRFVFSLDTSVSTAYLQISSLKAEDTAVYFCARNIYYGWGNFDYWGQGTLVTVSS VL: EIVMTQSPDFQSVTPKEKVTITCRASQDIYRNLHWYQQKPDQTPKLLIKHASDSISGIPSRFSGSGSGTDFTLTINSLEAEDAAAYYCLQGYSMPYTFGGGTKVEIKG |  |  |  |  |  | 52100 | 
